The text below walks through data of patent US20040053388A1, “Detection of protein conformation using a split ubiquitin reporter system” (priority 2003, published 2004).

Residue numbers refer to the chain shown, from its start.

Test [1] concerns the target HA-tagged Ste4p (Saccharomyces cerevisiae) (UniProt P18851). Briefly: cell-based or functional assay.
Another test deals with yeast cells. Briefly: Growth assay of Nub-p53core-Cub—RUra3p yeast cells on media containing 5-FOA. It is filed as cell-based. To be noted: Nia fusion protein. An excerpt:
The wild-type core domain and a destabilizing mutation V143A were further tested using a simple growth assay employing the R-ura3 reporter (see above) and selecting clones that can grow on 5-FOA. In this case the Nub (I13A) mutant Nia was used. If the Nub—X—Cub—R-ura3 fusion is […], the R-ura3 reporter will be cleaved off of the C-terminal end of Cub and subsequently be degraded by N-end rule components (see above), allowing the host yeast cell to grow on the 5-FOA selective media.
Consistent with previous results, the V143A core mutant is a destabilizing mutant when compared to the wild-type p53. […] The Nia fusion protein allows to distinguish between the cells expressing the wild type p53core (growth) and the cells expressing the V143A mutant of the core (non-growth).

The target in another test is Guk1-Cub-Dha (Saccharomyces cerevisiae, UniProt P15454 1-187; P0CG63 35-76; P00375 1-187). Briefly: split-ubiquitin in trans: coexpression in yeast, anti-ha immunoblot of cleaved Dha. An excerpt:
(§1) A significant extent of the observed cleavage could arise from the intermolecular reassociation of two Ub-halves that are linked to two different polypeptides. To estimate the contribution of the intermolecular Ub-reassociation, Guk1-Cub-Dha was coexpressed with several versions of Nub-Guk1-ha as was Fpr1-Cub-Dha with several versions of Nub-Fpr1-ha (FIG. 4a). Good intermolecular Nub—Cub reassociation is only seen in cells expressing the Nᵢᵢ-fusions, whereas none or only background cleavage is seen in those cells co-expressing the corresponding Nig-fusions. Nub-mutants with a lower affinity for Cub than Nig were therefore not tested. It thus can be concluded that the cleaved Dha observed for Nig—Cub fusion proteins and for those fusion proteins containing a Nub with a lower affinity for Cub than Nig must result exclusively from the intramolecular reassociation of the coupled Ub-peptides. The structure of Guk1p offers a reasonable explanation for this observation, that can not apply for the Fpr1p fusion proteins. Here the reassociation must either occur before Fpr1p is folded or after the unfolding of the already matured protein. […] We conclude that the fraction of cleaved Dha which is detected in the immunoblot analysis of cells expressing Nvg-Fpr1-Cub-Dha is largely derived from fusion proteins which stayed in the cytosol long enough to give the Fpr1-moiety sufficient time to fold.
In general terms: In western blotting, separated proteins are transferred to a membrane and probed.

The target in a further test is Fpr1-Cub-Dha (Saccharomyces cerevisiae, UniProt P20081 1-114; P0CG63 35-76; P00375 1-187). Described as above.
Chain of Fpr1-Cub-Dha (P20081 other isoform, or with tags, fused parts or gaps): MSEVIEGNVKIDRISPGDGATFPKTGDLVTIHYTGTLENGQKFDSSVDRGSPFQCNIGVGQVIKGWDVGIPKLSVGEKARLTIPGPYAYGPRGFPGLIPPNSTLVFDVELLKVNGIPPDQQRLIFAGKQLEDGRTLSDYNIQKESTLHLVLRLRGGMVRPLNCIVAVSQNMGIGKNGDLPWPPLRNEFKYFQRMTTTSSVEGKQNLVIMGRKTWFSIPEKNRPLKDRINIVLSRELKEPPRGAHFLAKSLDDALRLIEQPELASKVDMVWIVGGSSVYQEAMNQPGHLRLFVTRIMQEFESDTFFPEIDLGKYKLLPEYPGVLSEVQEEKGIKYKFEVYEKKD
From the text: as §1

For another test, the system named is S. cerevisiae cells. Briefly: Intrapolypeptide split-ubiquitin cleavage of Nub—X—Cub-Dha fusions, anti-HA immunoblot with chemiluminescence quantification. In kind it is cell-based, Saccharomyces cerevisiae. Particulars: yeast cells; for cleavage (percentage of cleaved Dha compared to the sum of cleaved and uncleaved fusion protein): 30° C., one hour induction with 100 μM CuSO4, anti-HA immunoblot. An excerpt:
The isoleucine residues at position three and thirteen of Nub (Nii) were replaced by valine (Nxv; Nvx) alanine (Nxa; Nax) and glycine (Nxg; Ngx) (Johnsson et al., Proc. Natl. Acad. Sci. USA 91: 10340-44, 1994; Kellis et al., Biochemistry 28: 4914-22, 1989). The residues at position 3 and 13 are indicated by the suffix in Nub with the corresponding amino acids in the single letter code. The sixteen different combinations were first tested in the otherwise native Ub which was attached in front of the dihydrofolate reductase carrying the HA epitope at its C-terminus (Ub-Dha). The analysis of the cleaved and uncleaved protein was performed by immunodetection of the proteins with the anti-HA antibody after cell extraction and SDS-PAGE separation.
S. cerevisiae cells expressing the different Nub—X—Cub-fusions were grown at 30° C. in […] of SD medium to an OD600 of 0.8 and supplemented with 100 μM CuSO4 one hour prior to cell extraction. Cell extraction for immunoblotting was performed essentially as previously described (Johnsson et al., Embo J. 13: 2686-98, 1994). Proteins were fractionated by SDS-12.5% PAGE and electroblotted onto nitrocellulose membranes (Schleicher and Schuell, Dassel, Germany), using a semi-dry transfer system (Hoefer, Pharmacia Biotech INC., San Francisco, Calif.). Blots were incubated with a monoclonal anti-ha antibody (Babco, Richmond, Calif.). Bound antibody was visualized with horseradish peroxidase-coupled rabbit anti-mouse or goat anti-rabbit antibody (BioRad, Hercules, Calif.), using the chemiluminescence detection system (Pierce, Rockford, Ill.). The chemiluminescence was quantified with the aid of the lumi-imager system (Boehringer, Mannheim, Germany).

Chain of HA-tagged Ste4p (Saccharomyces cerevisiae) (P18851 other isoform, or with tags, fused parts or gaps limits assumed): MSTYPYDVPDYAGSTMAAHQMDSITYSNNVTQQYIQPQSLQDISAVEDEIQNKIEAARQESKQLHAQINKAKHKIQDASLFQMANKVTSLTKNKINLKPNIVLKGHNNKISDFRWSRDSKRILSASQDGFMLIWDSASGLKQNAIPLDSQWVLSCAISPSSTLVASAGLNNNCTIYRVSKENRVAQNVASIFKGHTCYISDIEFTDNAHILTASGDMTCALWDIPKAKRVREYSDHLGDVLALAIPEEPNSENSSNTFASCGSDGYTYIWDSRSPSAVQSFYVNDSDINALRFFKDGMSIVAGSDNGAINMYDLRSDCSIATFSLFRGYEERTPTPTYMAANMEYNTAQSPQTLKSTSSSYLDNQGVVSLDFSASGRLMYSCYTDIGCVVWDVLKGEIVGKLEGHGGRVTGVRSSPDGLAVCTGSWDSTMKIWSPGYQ
Chain of Guk1-Cub-Dha (P15454 other isoform, or with tags, fused parts or gaps): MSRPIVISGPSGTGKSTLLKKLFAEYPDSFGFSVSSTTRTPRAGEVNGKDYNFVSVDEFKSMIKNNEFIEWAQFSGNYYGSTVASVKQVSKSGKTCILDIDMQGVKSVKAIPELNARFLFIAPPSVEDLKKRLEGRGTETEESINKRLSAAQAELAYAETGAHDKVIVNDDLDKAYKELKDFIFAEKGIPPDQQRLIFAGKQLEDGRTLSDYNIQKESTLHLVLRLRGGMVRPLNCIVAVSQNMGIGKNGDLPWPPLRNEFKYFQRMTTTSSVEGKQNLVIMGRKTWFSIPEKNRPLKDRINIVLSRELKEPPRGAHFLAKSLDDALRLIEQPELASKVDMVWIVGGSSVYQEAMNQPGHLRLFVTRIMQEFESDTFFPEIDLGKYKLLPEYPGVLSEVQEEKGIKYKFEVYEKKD

Consider “Nvg-Ste1891-Cub-Dha (from UniProt P0CG63 1-37; P18852 20-105; P0CG63 35-76; P00375 1-187)”, for which, in test [1], the fraction of uncleaved fusion protein (ratio of uncleaved to cleaved) with HA-Ste4p against without, inducing conditions (+Cu2+) amounted to 2 fold and the fraction of uncleaved fusion protein (ratio of uncleaved to cleaved) with HA-Ste4p against without, non-inducing conditions is 3.6 fold.

Consider “wild type p53core: p53 core domain (amino acids 102-292) in Nub-p53core-Cub—RUra3p fusion”, for which the “growth on media containing 5-FOA” value in the test with yeast cells is listed as “growth”.

As for “Nvg-Ste1874-Cub-Dha (from UniProt P0CG63 1-37; P18852 37-105; P0CG63 35-76; P00375 1-187)”, in test [1], the ratio of uncleaved to cleaved fusion protein with HA-Ste4p against without, expression not induced by copper was determined as 1.6 fold.

B1: Nig-Guk1-ha (other, UniProt P0CG63 1-37, looked up, not shown: small tags and cut ends)
chain: MQIFVKTLTGKTGTLEVESSDTIDNVKSKIQDKEGIPMSRPIVISGPSGTGKSTLLKKLFAEYPDSFGFSVSSTTRTPRAGEVNGKDYNFVSVDEFKSMIKNNEFIEWAQFSGNYYGSTVASVKQVSKSGKTCILDIDMQGVKSVKAIPELNARFLFIAPPSVEDLKKRLEGRGTETEESINKRLSAAQAELAYAETGAHDKVIVNDDLDKAYKELKDFIFAEK
notes: also called Nub-Guk1-ha; Nig-fusion
For the molecule B1, the binding result with Guk1-Cub-Dha was “no binding”.

B2: Nig-Fpr1-ha (other, UniProt P0CG63 1-37, looked up, not shown: small tags and cut ends)
chain: MQIFVKTLTGKTGTLEVESSDTIDNVKSKIQDKEGIPMSEVIEGNVKIDRISPGDGATFPKTGDLVTIHYTGTLENGQKFDSSVDRGSPFQCNIGVGQVIKGWDVGIPKLSVGEKARLTIPGPYAYGPRGFPGLIPPNSTLVFDVELLKVN
notes: also called Nub-Fpr1-ha; Nig-fusion
On to B2, for which the binding result in the test with Fpr1-Cub-Dha is “no binding”.

B3: Guk1V5R: Fusion construct of Guk1p with valine 5 replaced by arginine (protein, UniProt P15454 2-187, looked up, variant V5R)
Guanylate kinase: SRPIRISGPSGTGKSTLLKKLFAEYPDSFGFSVSSTTRTPRAGEVNGKDYNFVSVDEFKSMIKNNEFIEWAQFSGNYYGSTVASVKQVSKSGKTCILDIDMQGVKSVKAIPELNARFLFIAPPSVEDLKKRLEGRGTETEESINKRLSAAQAELAYAETGAHDKVIVNDDLDKAYKELKDFIFAEK
modifications: split-ubiquitin fusion construct
notes: Fusion construct of Guk1p with valine 5 replaced by arginine
For B3, in the test with S. cerevisiae cells, the “cleavage (percentage of cleaved Dha compared to the sum of cleaved and uncleaved fusion protein)” value is 61%.

B4: Nvg-Guk1G8R—Cub-Dha: Nvg—Cub-Dha fusion of Guk1p with glycine 8 replaced by arginine (protein, UniProt P15454 2-187, looked up, variant G8R)
Guanylate kinase: B3 Guanylate kinase with R5V, G8R
modifications: fused to Nvg, Cub, Dha
notes: Nvg—Cub-Dha fusion of Guk1p with glycine 8 replaced by arginine
In the case of B4, the “cleavage of fusion protein (in words)” value with S. cerevisiae cells (anti-HA immunoblot) was “cleaved as completely as the corresponding wild type construct”.

B5: Fpr1V107A (protein, UniProt P20081 2-114, looked up, variant V107A)
FK506-binding protein 1: SEVIEGNVKIDRISPGDGATFPKTGDLVTIHYTGTLENGQKFDSSVDRGSPFQCNIGVGQVIKGWDVGIPKLSVGEKARLTIPGPYAYGPRGFPGLIPPNSTLVFDAELLKVN
With B5, the “cleavage (percentage of cleaved Dha compared to the sum of cleaved and uncleaved fusion protein)” value in the test with S. cerevisiae cells came out at 55%.

B6: Fpr1V107G (protein, UniProt P20081 2-114, looked up, variant V107G)
FK506-binding protein 1: B5 FK506-binding protein 1 with A107G
Consider B6, for which, in the test with S. cerevisiae cells, the “cleavage (percentage of cleaved Dha compared to the sum of cleaved and uncleaved fusion protein)” value was determined as 40%.
